Data set [1] concerns the target IRE1β_LD, wildtype (analytical SEC) (not stated (human numbering used; mouse IRE1β_LD used in cells)). The data set can be described thus: SEC.
Data set [2] concerns the molecule itself. The data set can be described thus: AUC.
Data set [3] deals with the molecule itself. Briefly: SEC-SAXS.
For data set [4], the target named is T1, AGR2 H117Y (not stated (human or mouse AGR2 made)), O95994.
T1 chain: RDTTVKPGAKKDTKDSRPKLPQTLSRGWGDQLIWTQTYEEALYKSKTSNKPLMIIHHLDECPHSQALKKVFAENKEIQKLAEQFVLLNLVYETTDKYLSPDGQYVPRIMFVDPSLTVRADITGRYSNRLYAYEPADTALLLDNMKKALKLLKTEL
Briefly: SEC. To be noted: remark: other sources report otherwise.

As a reminder, the stoichiometry N is a count of units in the complex or per binding partner. Molecule “IRE1β_LD, wildtype (analytical SEC) (domain or fragment)” registered a stoichiometry N in data set [1] of 2.

B1: mouse AGR2 (residues 21-175), AUC (natural protein, UniProt O88312 21-175, looked up)
chain: KDTTVKSGAKKDPKDSRPKLPQTLSRGWGDQLIWTQTYEEALYRSKTSNRPLMVIHHLDECPHSQALKKVFAEHKEIQKLAEQFVLLNLVYETTDKHLSPDGQYVPRIVFVDPSLTVRADITGRYSNRLYAYEPSDTALLYDNMKKALKLLKTEL
B1: in data set [2], the binding result is given as “binds”.

B2: Human AGR2^41-171 (domain or fragment, UniProt O95994 41-171, looked up)
chain: PQTLSRGWGDQLIWTQTYEEALYKSKTSNKPLMIIHHLDECPHSQALKKVFAENKEIQKLAEQFVLLNLVYETTDKHLSPDGQYVPRIMFVDPSLTVRADITGRYSNRLYAYEPADTALLLDNMKKALKLL
On to B2, for which the “stoichiometry N” value in data set [3] was 2.

B3: AGR2 H117Y, O95994 21-175 (natural protein)
chain: T1 chain
B3 had a stoichiometry N in data set [4] of 2.

The values are drawn from publication doi:10.1101/2025.04.14.648677 (bioRxiv, 2025).
